Reference: patent US20180319842A1 (TUFTS MEDICAL CENTER, published 2018)
Groups on a side chain read outwards from the residue. No end group written: not given here. *: point of attachment. PEG8 = NCCOCCOCCOCCOCCOCCOCCOCCOCCC(=O)O; Palmitoyl = CCCCCCCCCCCCCCCC(=O)*

Tests used:
Assay in all cases: cell-based or functional assay
[1] = target: T1, Mas-related G protein-coupled receptor X1 (MrgprX1), wild type (human, UniProt Q96LB2 1-322)
MrgprX1 R131S variant = MrgprX1 R131S variant (human, UniProt Q96LB2 1-322)
MrgprX1 H133R variant = MrgprX1 H133R variant (human, UniProt Q96LB2 1-322)
MrgprX1 H137R variant = MrgprX1 H137R variant (human, UniProt Q96LB2 1-322)
MrgprX1 F273L variant = MrgprX1 F273L variant (human, UniProt Q96LB2 1-322)
[2] = target: T1, Mas-related G protein-coupled receptor …; remark: listed apart in the source
MrgprX1 I36V variant = MrgprX1 I36V variant (human, UniProt Q96LB2 1-322)
MrgprX1 A46T variant = MrgprX1 A46T variant (human, UniProt Q96LB2 1-322)
MrgprX1 R55L variant = MrgprX1 R55L variant (human, UniProt Q96LB2 1-322)
MrgprX1 R55L variant, sequence (Q96LB2 whole entry R55L): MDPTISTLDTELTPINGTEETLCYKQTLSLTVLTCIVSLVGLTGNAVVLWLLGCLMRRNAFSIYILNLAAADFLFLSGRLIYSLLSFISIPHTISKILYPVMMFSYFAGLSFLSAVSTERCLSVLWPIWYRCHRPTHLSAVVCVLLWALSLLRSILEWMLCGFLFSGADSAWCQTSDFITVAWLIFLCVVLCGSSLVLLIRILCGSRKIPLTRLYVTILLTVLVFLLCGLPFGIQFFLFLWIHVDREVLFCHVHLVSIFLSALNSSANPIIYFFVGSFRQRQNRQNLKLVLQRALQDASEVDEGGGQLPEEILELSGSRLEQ

MrgprX1 I36V variant, sequence (Q96LB2 whole entry I36V): as the sequence (Q96LB2 whole entry R55L) above, with I36V, L55R counted along it
MrgprX1 H137R variant, sequence (Q96LB2 whole entry H137R): as the sequence (Q96LB2 whole entry R55L) above, with L55R, H137R counted along it
MrgprX1 R131S variant, sequence (Q96LB2 whole entry R131S): as the sequence (Q96LB2 whole entry R55L) above, with L55R, R131S counted along it
MrgprX1 H133R variant, sequence (Q96LB2 whole entry H133R): as the sequence (Q96LB2 whole entry R55L) above, with L55R, H133R counted along it
MrgprX1 F273L variant, sequence (Q96LB2 whole entry F273L): as the sequence (Q96LB2 whole entry R55L) above, with L55R, F273L counted along it
MrgprX1 A46T variant, sequence (Q96LB2 whole entry A46T): as the sequence (Q96LB2 whole entry R55L) above, with A46T, L55R counted along it
T1 sequence (Q96LB2 whole entry): as the sequence (Q96LB2 whole entry R55L) above, with L55R counted along it

VGRPEWWMDYQKRYGGGK([PEG8-Palmitoyl]) [Lipidated BAM8-22]
potency relative to soluble BAM8-22, SRE-luciferase reporter, HEK293 cells [1]: ~100 fold higher potency than soluble BAM8-22
Curve Maximum, SRE-luciferase reporter, HEK293 cells (MrgprX1 R131S variant): 40.4 % of WT signal at 10^-6 M lipidated BAM8-22
EC50 (nM), SRE-luciferase reporter, HEK293 cells (MrgprX1 R131S variant): 57.1 nM
pEC50, SRE-luciferase reporter, HEK293 cells (MrgprX1 R131S variant): 7.24
Curve Maximum, SRE-luciferase reporter, HEK293 cells (MrgprX1 H133R variant): 110 % of WT signal at 10^-6 M lipidated BAM8-22
EC50 (nM), SRE-luciferase reporter, HEK293 cells (MrgprX1 H133R variant): 8.6 nM
pEC50, SRE-luciferase reporter, HEK293 cells (MrgprX1 H133R variant): 8.06
Curve Maximum, SRE-luciferase reporter, HEK293 cells (MrgprX1 H137R variant): 109 % of WT signal at 10^-6 M lipidated BAM8-22
EC50 (nM), SRE-luciferase reporter, HEK293 cells (MrgprX1 H137R variant): 7.9 nM
pEC50, SRE-luciferase reporter, HEK293 cells (MrgprX1 H137R variant): 8.1
Curve Maximum, SRE-luciferase reporter, HEK293 cells (MrgprX1 F273L variant): 95.9 % of WT signal at 10^-6 M lipidated BAM8-22
EC50 (nM), SRE-luciferase reporter, HEK293 cells (MrgprX1 F273L variant): 12.1 nM
pEC50, SRE-luciferase reporter, HEK293 cells (MrgprX1 F273L variant): 7.92
Curve Maximum, SRE-luciferase reporter, HEK293 cells [2]: 101 % of WT signal at 10^-6 M lipidated BAM8-22
EC50 (nM), SRE-luciferase reporter, HEK293 cells [2]: 12 nM
pEC50, SRE-luciferase reporter, HEK293 cells [2]: 7.92
Curve Maximum, SRE-luciferase reporter, HEK293 cells (MrgprX1 I36V variant): 109 % of WT signal at 10^-6 M lipidated BAM8-22
EC50 (nM), SRE-luciferase reporter, HEK293 cells (MrgprX1 I36V variant): 9.3 nM
pEC50, SRE-luciferase reporter, HEK293 cells (MrgprX1 I36V variant): 8.03
Curve Maximum, SRE-luciferase reporter, HEK293 cells (MrgprX1 A46T variant): 112 % of WT signal at 10^-6 M lipidated BAM8-22
EC50 (nM), SRE-luciferase reporter, HEK293 cells (MrgprX1 A46T variant): 9.5 nM
pEC50, SRE-luciferase reporter, HEK293 cells (MrgprX1 A46T variant): 8.02
Curve Maximum, SRE-luciferase reporter, HEK293 cells (MrgprX1 R55L variant): 108 % of WT signal at 10^-6 M lipidated BAM8-22
EC50 (nM), SRE-luciferase reporter, HEK293 cells (MrgprX1 R55L variant): 10.2 nM
pEC50, SRE-luciferase reporter, HEK293 cells (MrgprX1 R55L variant): 7.99
